Values of other authors as cited in patent US9056141B2, “Thiol-ene click chemistry for drug conjugates” (priority 2012, dated 2015).

Conditions: patients receiving Adcetris treatment

## brentuximab vedotin [Adcetris]
  patients in clinical trials experiencing serious adverse events: 31%
Clinical trials
  patients discontinuing the treatment due to adverse events: 21%
